Common to all, as to assay: flow cytometry, transfected 293T cells
A general note: In flow cytometry, cells or beads pass a laser one at a time.

Assay [1] concerns the target CHIKV E2-6K-E1 envelope proteins (strain S27) with E2 C203A (Chikungunya virus strain S27) (UniProt Q8JUX5).
For assay [2], the target named is CHIKV E2-6K-E1 envelope proteins (strain S27) with E2 N219A (Chikungunya virus strain S27) (UniProt Q8JUX5).
The target of assay [3] is CHIKV E2-6K-E1 envelope proteins (strain S27) with E2 T212A (Chikungunya virus strain S27) (UniProt Q8JUX5).
Assay [4] deals with CHIKV E2-6K-E1 envelope proteins (strain S27) with E2 S194A (Chikungunya virus strain S27) (UniProt Q8JUX5).
Assay [5] addresses CHIKV E2-6K-E1 envelope proteins (strain S27) with E2 T196A (Chikungunya virus strain S27) (UniProt Q8JUX5).
For assay [6], the target named is CHIKV E2-6K-E1 envelope proteins (strain S27) with E2 N187A (Chikungunya virus strain S27) (UniProt Q8JUX5).

On to “Mxra8-Fc (mouse Mxra8 extracellular domain fused to mouse IgG2b Fc) (Fc fusion)”, for which the Binding Reactivity (% WT) in assay [1] was 10.4 % WT; in assay [2], 66.6 % WT; in assay [3], 94.6 % WT; in assay [4], 87 % WT; in assay [5], 86.6 % WT; in assay [6], 90.5 % WT.
